Measurements as given in the supplement of paper PMC10724198.

What was measured:
Saccharomyces cerevisiae [1] = assay: protein stability index of tFT-peptide fusion in deletion strain of DAS1 (PSI (0-1 scale)); higher = more stable (slower turnover)
Experimental: (§1)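 MPS profiling in S. cerevisiae of two library types built from selected 12-aa C-degron peptides (IN1, IN2, LN1, LN3, VN2, R1-R5, W1-W3, Atg1 and Rpa12 C-termini): saturation mutagenesis libraries and C-terminal +1 capping libraries (13 aa). Each peptide is fused to the C-terminus of a sfGFP-mCherry timer, after a GGGS linker. Cells are FACS-sorted into 8 mCherry/sfGFP bins and sequenced. PSI runs from 0 (unstable) to 1 (stable), measured once in wild type and in the das1Δ or doa10Δ background.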

Saccharomyces cerevisiae [2] = assay: protein stability index of tFT-peptide fusion in wild type (PSI (0-1 scale)); higher = more stable (slower turnover); conditions: genetic background: wild type
Experimental: as §1
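Throughout, for protein stability index of tFT-peptide fusion in deletion strain of DAS1: PSI is a weighted mean of each variant's read distribution over the sorted stability bins, computed only for variants having over 10 reads in total.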
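Throughout, for protein stability index of tFT-peptide fusion in wild type: PSI derived as read-weighted mean over the 8 sorting bins, only variants exceeding 10 total reads kept, mCherry placed adjacent to the peptide and sfGFP distal.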

Row | Sequence | protein stability index (Saccharomyces cerevisiae [1]) | protein stability index (Saccharomyces cerevisiae [2])
1 | VRGAVGMWRLVG | 0.691 | 0.169
2 | PDKRNHLIKCLN | 0.634 | 0.169
3 | LVLYLSCVACIN | 0.0273 | 0.0137
4 | LVVYLSCKACIN | 0.0225 | 0.0136
5 | PSDAASFWRVVG | 0.702 | 0.187
6 | VRGAVGGWRLNG | 0.679 | 0.234
7 | PDKRNHLIKLLK | 0.611 | 0.758
8 | KKHKWGQKQKIN | 0.589 | 0.05
9 | ARWRVGRWRGAS | 0.688 | 0.533
10 | ARWAVGLWRGAS | 0.71 | 0.428
11 | CTSCGFKFRTNN | 0.697 | 0.486
12 | KKCKKGQKQKIN | 0.593 | 0.102
13 | KSMRWTFRYWVN | 0.578 | 0.0597
14 | VRGAVGGWRLRG | 0.679 | 0.636
15 | LVVCLSCVACIN | 0.034 | 0.0139
16 | PSLAASFWRKVG | 0.688 | 0.131
17 | ARWRVGLWRGASC | 0.669 | 0.628
18 | VRGAVGGWRLVT | 0.675 | 0.184
19 | QSMRWTFRYWVN | 0.691 | 0.047
20 | ARWRVGLWRGYS | 0.659 | 0.621
21 | LVVYLSCVACINK | 0.0356 | 0.0222
22 | KKHKKGQKSKIN | 0.562 | 0.548
23 | LVVYLSCVAKIN | 0.0401 | 0.0143

Row | Sequence | protein stability index (Saccharomyces cerevisiae [1]) | protein stability index (Saccharomyces cerevisiae [2])
24 | RLIQPLPVQFAN | 0.62 | 0.353
25 | RLIQPLPVQFLW | 0.565 | 0.621
26 | RLIQPLPRQFLN | 0.596 | 0.19
27 | RLIQPLPSQFLN | 0.613 | 0.106
28 | KKHKKGQKQKIY | 0.594 | 0.255
29 | ARWRQGLWRGAS | 0.616 | 0.678
30 | KKHKYGQKQKIN | 0.613 | 0.067
31 | LVVYLSCVACIV | 0.0299 | 0.0146
32 | CTSCGYMFRTNN | 0.682 | 0.357
33 | PDKRRHLIKLLN | 0.605 | 0.115
34 | CTSCHYKFRTNN | 0.64 | 0.26
35 | WRGAVGGWRLVG | 0.655 | 0.174
36 | PDKRNHLIKLEN | 0.603 | 0.611
37 | LVVYLSCVACINY | 0.0337 | 0.0212
38 | PSLADSFWRVVG | 0.688 | 0.586
39 | FSMRWTFRYWVNT | 0.539 | 0.318
40 | PGKRNHLIKLLN | 0.585 | 0.127
41 | FSMLWTFRYWVN | 0.346 | 0.0376
42 | PDTRNHLIKLLN | 0.59 | 0.183
43 | VRSAVGGWRLVG | 0.685 | 0.141
44 | FSMRWTPRYWVN | 0.59 | 0.0631
45 | LVVYTSCVACIN | 0.0606 | 0.0172
46 | VRGAVGGWRLVP | 0.686 | 0.436

Row | Sequence | protein stability index (Saccharomyces cerevisiae [1]) | protein stability index (Saccharomyces cerevisiae [2])
47 | FSMGWTFRYWVN | 0.575 | 0.0807
48 | LFILRQKMNHQN | 0.692 | 0.126
49 | VHGAVGGWRLVG | 0.692 | 0.136
50 | LVVYLSCVACINT | 0.0331 | 0.0205
51 | VRGKVGGWRLVG | 0.67 | 0.129
52 | VEGAVGGWRLVG | 0.685 | 0.159
53 | RLIQPLPVQLLN | 0.577 | 0.0606
54 | PSSAASFWRVVG | 0.696 | 0.143
55 | ARWRVGLWDGAS | 0.688 | 0.705
56 | PSLAMSFWRVVG | 0.673 | 0.146
57 | CTSCGYKFRTNNE | 0.711 | 0.709
58 | VRGAVGGWRLVI | 0.685 | 0.215
59 | VRGAVGGGRLVG | 0.682 | 0.564
60 | LKILRQKMNHQNP | 0.688 | 0.678
61 | PSLAAKFWRVVG | 0.681 | 0.149
62 | LVVYLSCVSCIN | 0.0441 | 0.0143
63 | SVVYLSCVACIN | 0.0314 | 0.0146
64 | IKHKKGQKQKIN | 0.608 | 0.109
65 | RLIQPLPVQFGN | 0.611 | 0.63
66 | FSMRWTFRYWVNK | 0.532 | 0.522
67 | DTSCGYKFRTNN | 0.68 | 0.241
68 | ARWRVGMWRGAS | 0.701 | 0.458
69 | VMGAVGGWRLVG | 0.681 | 0.118

Row | Sequence | protein stability index (Saccharomyces cerevisiae [1]) | protein stability index (Saccharomyces cerevisiae [2])
70 | LVVYLSCVACIC | 0.0309 | 0.0144
71 | VRGAVQGWRLVG | 0.682 | 0.157
72 | KKHKKGQKQKING | 0.653 | 0.293
73 | VRGAAGGWRLVG | 0.689 | 0.164
74 | ATWRVGLWRGAS | 0.685 | 0.487
75 | VRGAVGKWRLVG | 0.68 | 0.172
76 | LTILRQKMNHQN | 0.679 | 0.123
77 | GRGAVGGWRLVG | 0.671 | 0.19
78 | CTSCGYKFRTNE | 0.685 | 0.726
79 | ARWRVGLWRMAS | 0.683 | 0.0865
80 | CISCGYKFRTNN | 0.725 | 0.211
81 | FSMRWTFRYWHN | 0.686 | 0.149
82 | ARWRVTLWRGAS | 0.692 | 0.382
83 | PSLHASFWRVVG | 0.684 | 0.157
84 | YSLAASFWRVVG | 0.67 | 0.128
85 | KKHKKGQKQKEN | 0.82 | 0.57
86 | YTSCGYKFRTNN | 0.691 | 0.212
87 | LKILCQKMNHQN | 0.71 | 0.246
88 | PDKRNHLIKVLN | 0.577 | 0.186
89 | RSMRWTFRYWVN | 0.659 | 0.0703
90 | PSLAASFWCVVG | 0.687 | 0.47
91 | LVVYLSCEACIN | 0.0235 | 0.0807
92 | CTSCGYKFPTNN | 0.728 | 0.71

Row | Sequence | protein stability index (Saccharomyces cerevisiae [1]) | protein stability index (Saccharomyces cerevisiae [2])
93 | LVVMLSCVACIN | 0.0276 | 0.0128
94 | LKILRQKMNHQNA | 0.681 | 0.658
95 | CTSCGYKFRTNNV | 0.69 | 0.684
96 | FSVRWTFRYWVN | 0.419 | 0.0298
97 | ITSCGYKFRTNN | 0.674 | 0.208
98 | PDKRNHLIKLLND | 0.664 | 0.638
99 | FSMYWTFRYWVN | 0.399 | 0.0583
100 | VRGAVGGWRVVG | 0.654 | 0.259
101 | FSMRWTVRYWVN | 0.454 | 0.0513
102 | RLPQPLPVQFLN | 0.631 | 0.118
103 | KDHKKGQKQKIN | 0.604 | 0.0956
104 | CTSCGYKFRINN | 0.721 | 0.233
105 | LVVYLSCVACIS | 0.0369 | 0.014
106 | VRGAPGGWRLVG | 0.684 | 0.165
107 | ARFRVGLWRGAS | 0.668 | 0.56
108 | LVVYLLCVACIN | 0.0739 | 0.0159
109 | VRGDVGGWRLVG | 0.679 | 0.108
110 | RLIQPLVVQFLN | 0.587 | 0.045
111 | ARWRVGNWRGAS | 0.678 | 0.684
112 | PDNRNHLIKLLN | 0.604 | 0.171
113 | KKHKKGQKQKRN | 0.575 | 0.5
114 | PDKRNHLLKLLN | 0.6 | 0.157
